Laboratory results reported in patent US11208498B2, “Treatment and prevention of cancer using HER3 antigen-binding molecules” (Hummingbird Bioscience Holdings Pte. Ltd., priority 2019, dated 2021).

Legend:
[1] = target: human HER3: human NRG1 complex (Homo sapiens, UniProt P21860); assay: BLI binding to HER3 in ligand-bound 'open' conformation; details: NRG1 at 1:1 molar ratio with HER3
Experimental: In further experiments, anti-HER3 antibodies were analysed in order to determine the affinity of binding to human HER3 in the context of a human HER3: human NRG1 complex (that is, HER3 provided in the ligand-bound, ‘open’ conformation), as compared to the affinity of binding to human HER3 in the absence of NRG1 complex (that is, HER3 provided in the unbound, ‘closed’ conformation).
(§1) Binding of anti-HER3 antibodies to human HER3 was evaluated by BLI. Briefly, anti-Human IgG Capture (AHC) sensors (ForteBio) were loaded with anti-HER3 IgG antibodies (25 nM). Kinetic measurements were performed in absence or presence of NRG1. NRG1 was used at 1:1 molar ratio with HER3 wherein the complex was allowed to form at RT for 2 h. His-tagged human HER3 or HER3-NRG1 complexes were loaded to antibody coated AHC sensors at different concentrations for 120 s, followed by a 120 s dissociation time. All measurements were performed at 25° C. with agitation at 1000 rpm. Sensorgrams were referenced for buffer effects and then analyzed using the Octet QK384-software (ForteBio). Kinetic responses were globally fitted using a one-site binding model to obtain values for association (Kon), dissociation (Koff) rate constants and the equilibrium dissociation constant (KD).

human HER3 = human HER3 (Homo sapiens, UniProt P21860); assay: Global affinity study by Bio-Layer Interferometry (Octet QK384); assay type: binding; details: HER3 unbound, 'closed' conformation
Experimental: The anti-HER3 antibody clones in IgG1 format were analysed for binding affinity to human HER3.
Bio-Layer Interferometry (BLI) experiments were performed using the Octet QK384 system (ForteBio). anti-Human IgG Capture (AHC) Octet sensor tips (Pall ForteBio, USA) were used to anti-HER3 antibodies (25 nM). All measurements were performed at 25° C. with agitation at 1000 rpm. […] Sensograms were referenced for buffer effects and then fitted using the Octet QK384 user software (Pall ForteBio, USA).
as §1

human EGFR = target: T1, human EGFR (Homo sapiens, UniProt P00533); assay: ELISA for antibody specificity: human EGFR (HER1); assay type: binding
T1 construct: purchased Sino Biological Inc., China
Experimental: ELISAs were used to determine the binding specificity of the antibodies. The antibodies were analysed for binding to human HER3 polypeptide, as well as respective mouse, rat and monkey homologues of HER3 (Sino Biological Inc., China). The antibodies were also analysed for their ability to bind to human EGFR and human HER2 (Sino Biological Inc., China).
ELISAs were carried out according to standard protocols. Briefly, 96-well plates (Nunc, Denmark) were coated with 0.1 μg/ml of target polypeptide in phosphate-buffered saline (PBS) for 16 h at 4° C. After blocking for 1 h with 1% BSA in Tris buffer saline (TBS) at room temperature, the anti-HER3 antibody was serially diluted with the highest concentration being 10 μg/ml, and added to the plate. Post 1 h incubation at room temperature, plates were washed three times with TBS containing 0.05% Tween 20 (TBS-T) and were then incubated with a HRP-conjugated anti-His antibody (Life Technologies, Inc., USA) for 1 h at room temperature. […] The reaction was stopped with 2M H2SO4, and OD was measured at 450 nm.
The antibodies were analysed for their ability to bind to human HER3 polypeptide as well as human HER1 (EGFR) and human HER2 (Sino Biological Inc., China). […]
ELISAs were carried out according to standard protocols. […] The reaction was stopped with 2M […], and OD was measured at 450 nm.

[2] = test system: HER3 extracellular domain; assay: Epitope mapping with overlapping 15-mer peptides; assay type: binding, human
Experimental: The epitope for 10D1 was mapped using overlapping 15-mer amino acids to cover the entire HER3 extracellular domain. Each unique 15-mer was elongated by a GS linker at C and N-terminals, conjugated to a unique well in 384 well plates, and the plates were incubated with 0.1, 1, 10 and 100 ug/ml of 10D1 antibody for 16 hrs at 4° C. The plates were washed and then incubated for 1 hr at 20° C. with POD-conjugated goat anti-human IgG. Finally POD substrate solution was added to the wells for 20 min. before binding was assessed by measurement of chemiluminescence at 425 nm using a LI-COR Odyssey Imaging System, and quantification and analysis was performed using the PepSlide Analyzer software package. The experiment was performed in duplicate.

[3] = test system: intracellular signalling pathways in FaDu cells; assay: Phosphoprotein Antibody Array, FaDu cells; assay type: cell-based; details: 50 μg/ml antibody 4 hrs, NRG 100 ng/ml 15 min
Experimental: In further experiments the inventors investigated the intracellular signalling pathways affected by anti-HER3 antibody-mediated inhibition of HER3.
FaDu cells were seeded in wells of a 6 well plate with 10% serum at 37° C., 5% CO2. After 16 hrs, cells were starved by culture overnight in 1% FBS cell culture medium. On the following day cells were treated with 50 μg/ml anti-HER3 antibody 10D1 for 4 hrs, followed by 15 min stimulation with NRG (100 ng/ml). Proteins were then extracted, quantified using standard Bradford protein assay, and incubated overnight with pre-blocked Phosphoprotein Antibody Array membrane (Ray Biotech) at 4° C. The membrane was then washed with washing buffer and incubated with detection antibody cocktail for 2 hrs at room temperature, followed by washing and incubation with HRP-Conjugated anti-IgG. After 2 hrs the membrane was washed and probed using the kit detection buffer. Images were captured with Syngene Gbox imaging system, the intensity of each dot/phosphoprotein was measured and percent inhibition was calculated by comparison with intensity measured for cells treated in the same way in the absence of the antibody.

His-tagged human HER3 = His-tagged human HER3 (Homo sapiens, UniProt P21860); assay: BLI competition between anti-HER3 antibodies for binding to HER3
Experimental: Bio-Layer Interferometry (BLI) experiments were performed using the Octet QK384 system (ForteBio). anti-Penta-HIS (HIS1K) coated biosensor tips (ForteBio, USA) were used to capture His-tagged human HER3 (75 nM; 300 s). […] The variable region of LJM-716 antibody was cloned in the PDZ vector having human IgG1 and IgKappa Fc backbone.
BLI experiments were performed as described in Example 3.5 with one alteration: 400 nM of competing antibodies were used. The variable regions of M-05-74 and M-08-11 antibodies were cloned in the PDZ vector having human IgG1 and IgKappa Fc backbone.

With “LJM716: anti-HER3 antibody clone described in Garner et al., Cancer Res (2013); epitope across domains II and IV [reference compound]” the “affinity of binding to human HER3 in the presence of NRG1” value [1] was “dramatically reduced” and the “affinity of binding to human HER3 in the absence of NRG1” value (human HER3) was “subpicomolar affinity”.

B1: 4-35-B2: anti-HER3 antibody clone, VH SEQ ID NO:127, VL SEQ ID NO:135 (antibody, V domains shown)
VH: EIQLQQSGPELVKPGASVKVSCKASGYSFTDYNMYWVKQSHGKSLEWIGHINPYNGGTTYNQKFKGRATLTVDKSSSTAFMHLNSLTSEDSAVYFCVSLRWGAMDYWGQGTSVTVSS
VL: QIVLTQSPALMSASPGEKVTMTCSASSSVSYMYWYQQKPRSSPKPWIYLTSNLASGVPARFSGSGSGTSYSLTISSMEAEDAATYYCQQWNSNPYTFGGGTKLEIK
modifications: 4-35-B2 heavy chain variable region; 4-35-B2 light chain variable region
In the case of B1, the “binding to human EGFR” value (human EGFR) is reported as “found to bind”.

B2: 10D1: parental mouse anti-HER3 antibody clone, VH SEQ ID NO:24, VL SEQ ID NO:74, human IgG1 chimeric (antibody, V domains shown)
VH: DVQLQESGPDLVKPSQSLSLTCTVTGYSITSGYSWHWIRQFPGNKLEWMGSIHYSGGTNYNPSLKSRISITRDTSKNQFFLQLNSVTTEDTATYFCARMTTAPRYPFDYWGQGTTLTVSS
VL: DIVMTQSQKFMSTSVGDRVSVTCKASQIVGSNVAWYQQKPGQSPKPLIYSASYRYSGVPDRFTASGSGTDFTLTITNVQSEDLAEYFCQQYSSHPLTFGAGTKLELK
modifications: human IgG1 constant regions; 10D1 heavy chain variable region; 10D1 light chain variable region
For B2, the “location of epitope relative to β-hairpin of HER3 dimerisation arm” value [2] was “at a dimerisation interface N-terminal to the β-hairpin”, the “site of HER3 bound” value ([2]; positions of human HER3 SEQ ID NO:1, region SEQ ID NO:229) was “positions 218 to 235” and the “PI3K/AKT/mTOR and MAPK signalling” value [3] was “inhibit PI3K/AKT/mTOR and MAPK signalling”. For the same molecule, the “epitope of HER3 relative to MM-121 and/or LJM-716” value (His-tagged human HER3) was “distinct and topologically distant epitope”.

B3: 10D1F: clone with VH SEQ ID NO:36 and VL SEQ ID NO:83; b369 means 10D1F.A, b1087 the mIgG2a format (antibody, V domains shown)
VH: QVQLQESGPGLVKPSQTLSLTCTVSGYSITSGYSWHWIRQHPGKGLEWIGSIRYSGGTDYNPSLKSLVTISADTSKNQFSLKLSSVTAADTAVYYCARMTTAPWYPFDYWGQGTTVTVSS
VL: DIQMTQSPSSVSASVGDRVTITCKASQIVGSNVAWYQQKPGKAPEPLIYSASYLYSGVPSRFSGSGSGTDFTLTISSLQPEDFATYYCQQYSSHPLTFGQGTKLEIK
modifications: 10D1_c89 heavy chain variable region; 10D1_c89 light chain variable region
notes: b369 means 10D1F.A, b1087 the mIgG2a format
In the case of B3, the “affinity of binding to human HER3 in the presence of NRG1” value [1] is reported as “sub-picomolar affinity” and the “affinity of binding to human HER3 in the absence of NRG1” value (human HER3) is reported as “sub-picomolar affinity”.
